From patent US20220396619A1 (Eli Lilly, published 2022)

How the values were obtained:
[1] = molecular target: T1, Cynomolgus monkey CD200R long isoform (cynomolgus monkey); assay: flow cytometry on CHO cells expressing the receptor; midpoint of titration, one-site saturation fit
T1 construct: Stably expressed on CHO cells; also called cynomolgus monkey CD200R long isoform on CHO cells
T1 chain: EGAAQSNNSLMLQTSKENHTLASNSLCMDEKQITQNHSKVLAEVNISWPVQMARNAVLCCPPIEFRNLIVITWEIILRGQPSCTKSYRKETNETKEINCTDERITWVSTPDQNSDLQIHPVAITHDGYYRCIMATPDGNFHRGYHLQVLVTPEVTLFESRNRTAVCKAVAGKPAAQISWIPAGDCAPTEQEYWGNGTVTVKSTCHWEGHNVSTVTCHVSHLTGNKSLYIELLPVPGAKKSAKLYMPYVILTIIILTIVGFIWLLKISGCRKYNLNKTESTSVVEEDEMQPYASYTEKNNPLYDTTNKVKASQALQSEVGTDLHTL
Method: (§1) To perform flow cytometry, CD200R-expressing CHO cells are counted using a Vicell counter and pelleted by centrifugation at 1200 RPM, aspirated and resuspended in phosphate buffered saline (PBS). Cells are counted again and after another centrifugation are adjusted to 10⁶ cells/mL in flow cytometry wash buffer (PBS w/10% NGS & 2% FBS & 0.05% NaN₃) with Fc block (BD Biosciences). Cells are blocked on ice for 15 minutes. Next the tubes are centrifuged, aspirated, and washed once with cold wash buffer. After the wash, the cells are adjusted to 10⁶ cells/mL in wash buffer and plated at […] (50 μL) in a 96-well tissue culture plate (Corning 3799). Antibody A is titrated (1:3 dilutions) on the 96-well polystyrene plates (Corning 3879) starting at 30 μg/mL (final concentration) in cold wash buffer. Next, Antibody A is transferred at 50 μL/well into the Corning 3799 plate containing cells. The plates are incubated on ice for 45 minutes then washed twice with 150 μL cold wash buffer. Next, 100 μL secondary Goat anti-human IgG Fc-PE (Jackson Cat. No. 109-116-098 or Jackson Cat. No. 109-116-088) is added at a 1:500 or 1:400 dilution in wash buffer and incubated for 45 minutes on ice. Plates are washed twice and 200 μL propidium iodide (1:1000 dilution in wash buffer; Molecular Probes Cat. No. P3566) is added as the cell viability stain. The plates are covered with foil on ice. Flow cytometry is then performed using a Fortessa instrument acquiring with FACS Diva software (both from Becton Dickinson) and analyzing with FlowJo (version 10.5.3).
(§2) Antibody A is tested for its binding to recombinantly expressed isoforms of both human and cynomolgus monkey CD200R and the related activating cynomolgus monkey CD200RLa protein on Chinese Hamster Ovary (CHO) cell line surfaces using flow cytometry. The antibody is titrated onto CHO cells expressing the polypeptide of interest. The flow cytometry binding curves are fit using the one-site saturation binding model in GraphPad Prism.

[2] = molecular target: T2, Cynomolgus monkey CD200RLa (cynomolgus monkey); assay: as above
T2 construct: also called cynoCD200RLa
T2 chain: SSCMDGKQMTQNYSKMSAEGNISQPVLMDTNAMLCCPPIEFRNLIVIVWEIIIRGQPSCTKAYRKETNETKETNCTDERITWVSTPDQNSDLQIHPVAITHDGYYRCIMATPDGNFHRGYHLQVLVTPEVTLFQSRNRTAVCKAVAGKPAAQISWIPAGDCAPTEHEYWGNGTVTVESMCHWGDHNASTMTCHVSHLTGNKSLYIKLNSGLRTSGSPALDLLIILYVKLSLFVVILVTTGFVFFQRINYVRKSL
Method: as §1, §2

[3] = molecular target: T3, Human CD200R short isoform (human, UniProt Q8TD46 46-348); assay: as above
T3 construct: Stably expressed on CHO cells; also called human CD200R short isoform on CHO cells
T3 sequence: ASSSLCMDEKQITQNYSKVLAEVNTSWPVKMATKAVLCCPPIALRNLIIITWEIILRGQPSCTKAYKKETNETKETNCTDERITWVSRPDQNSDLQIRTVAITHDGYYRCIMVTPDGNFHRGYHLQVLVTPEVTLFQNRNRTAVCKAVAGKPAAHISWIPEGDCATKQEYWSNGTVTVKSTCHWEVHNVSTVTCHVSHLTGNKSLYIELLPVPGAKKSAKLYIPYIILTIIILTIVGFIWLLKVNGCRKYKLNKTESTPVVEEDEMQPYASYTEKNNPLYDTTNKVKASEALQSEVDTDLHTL
Method: as §1, §2

[4] = molecular target: T4, Human CD200R long isoform (human, UniProt Q8TD46 25-348); assay: as above
T4 construct: Stably expressed on CHO cells; also called human CD200R long isoform on CHO cells
T4 chain: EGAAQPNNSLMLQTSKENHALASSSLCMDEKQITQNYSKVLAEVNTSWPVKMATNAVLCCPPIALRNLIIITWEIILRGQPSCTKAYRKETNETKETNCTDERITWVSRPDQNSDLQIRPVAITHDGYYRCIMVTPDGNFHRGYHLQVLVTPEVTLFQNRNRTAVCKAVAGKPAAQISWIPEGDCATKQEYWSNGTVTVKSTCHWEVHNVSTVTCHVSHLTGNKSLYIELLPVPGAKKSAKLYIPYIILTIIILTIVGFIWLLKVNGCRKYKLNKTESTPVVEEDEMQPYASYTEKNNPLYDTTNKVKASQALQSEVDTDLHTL
Method: as §1, §2

[5] = molecular target: T5, soluble cynomolgus monkey CD200R long isoform ECD-His polypeptide (cynomolgus monkey); assay: SPR (Biacore T200), antibody captured on Protein A, receptor ECD-His as analyte, 37 C, n = 3
T5 construct: Expressed in HEK293 or CHO cells; also called cynoCD200R long isoform ECD-His; cynoCD200R-ECD long isoform-His
T5 chain: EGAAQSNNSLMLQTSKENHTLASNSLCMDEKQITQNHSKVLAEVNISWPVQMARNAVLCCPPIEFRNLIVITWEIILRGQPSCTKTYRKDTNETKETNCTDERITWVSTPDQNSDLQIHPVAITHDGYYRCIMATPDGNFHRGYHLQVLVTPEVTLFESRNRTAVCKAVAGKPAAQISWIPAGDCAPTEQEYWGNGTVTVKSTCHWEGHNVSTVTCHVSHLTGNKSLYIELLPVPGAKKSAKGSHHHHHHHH
Excerpt: (§3) A BIACORE™ T200 (GE Healthcare, Piscataway, N.J.) is used to measure the binding kinetics and affinities of Antibody A to soluble human CD200R long isoform extracellular domain (ECD)-His polypeptide (SEQ ID NO: 17) (R&D Systems Cat. No. 10053-CD-050) and soluble cynomolgus monkey CD200R long isoform ECD-His polypeptide (SEQ ID NO: 19). Cynomolgus monkey CD200R ECD long isoform-His is expressed in HEK293 or CHO cells and purified using Ni SEPHAROSE™ excel column (GE Healthcare Life Sciences) and size exclusion chromatography.
(§4) A Series S CM4 chip (GE Healthcare Ca. No. BR-1005-34) is prepared using the manufacturer's EDC/NHS amine coupling method (GE Healthcare Cat. No. BR-1000-50). Briefly, the surfaces of all 4 flow cells are activated by injecting a 1:1 mixture of EDC/NHS for 7 minutes at 10 μL/minute. Protein A (Calbiochem Cat. No. 539202) is diluted to 100 μg/mL in 10 mM acetate pH 4.5 buffer and immobilized for approximately 400 RU onto all 4 flow cells by 7 minute injection at a flow rate of 10 μL/minute. Un-reacted sites are blocked with a 7 minute injection of ethanolamine at 10 μL/minute. Injections of 2×10 μL of glycine pH 1.5 are used to remove any non-covalently associated protein. Running buffer is 1× HBS-EP+ (10 mM HEPES, 150 mM NaCl, 0.05% Tween-20, pH 7.6, Teknova Cat. No. H8022).
(§5) Binding is evaluated using multi-cycle kinetics by an antibody capture method. Samples are diluted in 1× HBS-EP+ running buffer with 0.25% IgG free BSA (Jackson Immuno Research Cat. No. 001-000-161). Each cycle is performed at 37° C. at a flow rate of 20 μL/min for antibody capture to the Protein A chip and 30 μL/min for analyte association and dissociation.

[6] = molecular target: T6, soluble human CD200R long isoform extracellular domain (ECD)-His polypeptide (human, UniProt Q8TD46 29-265); assay: as above
T6 construct: Bought from R&D Systems, Cat. No. 10053-CD-050; also called Human CD200R long isoform ECD-His; human CD200R-ECD long isoform-His
T6 sequence: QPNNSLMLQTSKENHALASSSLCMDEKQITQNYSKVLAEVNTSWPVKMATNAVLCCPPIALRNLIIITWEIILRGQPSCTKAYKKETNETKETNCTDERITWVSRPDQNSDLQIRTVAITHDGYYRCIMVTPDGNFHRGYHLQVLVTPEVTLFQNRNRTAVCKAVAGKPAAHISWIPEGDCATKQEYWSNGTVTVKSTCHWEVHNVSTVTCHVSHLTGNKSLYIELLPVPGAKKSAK
Excerpt: as §3, §4, §5

B1: Antibody A (antibody, human IgG4 S228P, kappa, F234A L235A, V domains shown)
VH: QVQLVESGGGVVQPGRSLRLSCAASGFTFSRYGMHWVRQAPGKGLEWVAVIPYDGSNKYYADSVKGRFTISRDISKNTLYLQMNSLRAEDTAVYYCARRGYYDSSGYYYFYYGMDVWGQGTTVTVSS
VL: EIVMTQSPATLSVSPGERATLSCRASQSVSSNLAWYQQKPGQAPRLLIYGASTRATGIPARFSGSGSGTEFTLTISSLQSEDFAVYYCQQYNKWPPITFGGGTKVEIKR
notes: The control used beside it is IgG4-PAA; also called Anti-human CD200R (Antibody A)
EC50 [1]: 2.3 µg/mL
EC50 [2]: 3.7 µg/mL
EC50 [3]: 1.1 µg/mL
EC50 [4]: 3.2 µg/mL
Kd [5]: 93.2 nM
Stoichiometry [5]: 2.6
koff [5]: 0.00056 s⁻¹
kon [5]: 6200 M⁻¹ s⁻¹
Kd [6]: 34.8 nM
Stoichiometry [6]: 1.9
koff [6]: 0.00016 s⁻¹
kon [6]: 4700 M⁻¹ s⁻¹
